According to patent US20230331835A1:

Molecular target: antigens on human iPSC-derived brain microvascular endothelial cells (BMECs) (human)
Assay: flow cytometry of BMECs with phage, anti-M13 detection

Work on “phage displaying anti-botulinum neurotoxin scFv” yielded a geometric mean (fluorescence) of 3.16.
